Assay results: patent publication US20040254099A1, “Compounds and methods for modulating beta-catenin mediated gene expression” (Adherex Technologies, Inc., priority 1999, published 2004)

System: retinoic acid receptor
Test: Retinoic acid receptor dependent transactivation (retinoic acid β promoter-luciferase reporter)
Type: cell-based
Conditions: MCF-7 breast cancer cells transfected with reporter plasmid and wild-type or stable (S37A) mutant β-catenin; 9-cis retinoic acid, various doses, 48 hours
Experimental: FIG. 1 is a histogram depicting the enhancement of retinoic acid receptor-dependent transactivation by β-catenin. Luciferase activity, shown in relative light units, is illustrated for MCF-7 breast cancer cells transfected with the retinoic acid β promoter-luciferase reporter plasmid and a wild-type or a stable (S37A) mutant form of β-catenin (or vector alone, as a control) and treated with the indicated doses of 9-cis retinoic acid for 48 hours.
MCF-7 breast cancer cells were transfected with the retinoic acid β promoter-luciferase reporter plasmid and a wild-type or a stable (S37A) mutant form of β-catenin (see Orford et al., J. Biol. Chem. 272:24735-24738, 1997), and treated with various doses of 9-cis retinoic acid for 48 hours. The results, presented in FIG. 1, illustrate the activity of the reporter, measured in relative light units.

B1: β-catenin: cytoplasmic protein, expressed in cells by transfection as wild-type or stable (S37A) mutant form (protein, UniProt P35222 2-781, looked up)
Catenin beta-1: ATQADLMELDMAMEPDRKAAVSHWQQQSYLDSGIHSGATTTAPSLSGKGNPEEEDVDTSQVLYEWEQGFSQSFTQEQVADIDGQYAMTRAQRVRAAMFPETLDEGMQIPSTQFDAAHPTNVQRLAEPSQMLKHAVVNLINYQDDAELATRAIPELTKLLNDEDQVVVNKAAVMVHQLSKKEASRHAIMRSPQMVSAIVRTMQNTNDVETARCTAGTLHNLSHHREGLLAIFKSGGIPALVKMLGSPVDSVLFYAITTLHNLLLHQEGAKMAVRLAGGLQKMVALLNKTNVKFLAITTDCLQILAYGNQESKLIILASGGPQALVNIMRTYTYEKLLWTTSRVLKVLSVCSSNKPAIVEAGGMQALGLHLTDPSQRLVQNCLWTLRNLSDAATKQEGMEGLLGTLVQLLGSDDINVVTCAAGILSNLTCNNYKNKMMVCQVGGIEALVRTVLRAGDREDITEPAICALRHLTSRHQEAEMAQNAVRLHYGLPVVVKLLHPPSHWPLIKATVGLIRNLALCPANHAPLREQGAIPRLVQLLVRAHQDTQRRTSMGGTQQQFVEGVRMEEIVEGCTGALHILARDVHNRIVIRGLNTIPLFVQLLYSPIENIQRVAAGVLCELAQDKEAAEAIEAEGATAPLTELLHSRNEGVATYAAAVLFRMSEDKPQDYKKRLSVELTSSLFRTEPMAWNETADLGLDIGAQGEPLGYRQDDPSYRSFHSGGYGQDALGMDPMMEHEMGGHHPGADYPVDGLPDLGHAQDLMDGLPPGDSNQLAWFDTDL
activity of the reporter (luciferase activity, relative light units): augment the activity of the reporter
